Reference: the supplement of paper PMC9876800

System: peptide library, one residue held at a place counted from the S/T acceptor
Assay: relative phosphorylation of the sub-library (ratio to the mean residue at this position); higher = residue favoured
Method in brief: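 Human or orthologue kinase constructs, purified and recombinant, were incubated under kinase-specific conditions in 384-well plates with biotinylated degenerate peptide sub-libraries. Each sub-library fixed one residue at one position around a central Ser/Thr. Incubations lasted 90 min with peptides at 50 μM and 50 μM ATP spiked with γ-32P-ATP, after which spots on streptavidin membranes were phosphorimaged and quantified by densitometry. Relative sub-library phosphorylation is a ratio to the mean residue at that position.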

MAPK14, construct: Full length, human, sequence (Q16539 whole entry, looked up): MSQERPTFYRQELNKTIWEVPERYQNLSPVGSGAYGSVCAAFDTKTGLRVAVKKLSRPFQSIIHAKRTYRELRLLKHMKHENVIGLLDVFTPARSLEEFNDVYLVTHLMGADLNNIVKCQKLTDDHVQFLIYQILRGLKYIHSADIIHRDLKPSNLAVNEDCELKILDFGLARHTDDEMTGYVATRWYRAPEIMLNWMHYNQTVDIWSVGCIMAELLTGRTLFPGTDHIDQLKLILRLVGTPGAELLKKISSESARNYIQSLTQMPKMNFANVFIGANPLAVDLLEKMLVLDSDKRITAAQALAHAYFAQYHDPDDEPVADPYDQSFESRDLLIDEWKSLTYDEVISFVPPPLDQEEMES

CDK2, construct: Full length, human (from UniProt P24941)
relative phosphorylation
Conditions	at +1	at +2	at +3	at +4	at -1	at -2	at -3	at -4	at -5
A fixed	0.422	0.748	0.457	0.579	0.947	0.875	1.06	1.02	1.03
D fixed	0.304	0.611	0.279	0.735	1.08	0.754	0.692	1.01	1.09
E fixed	0.304	0.544	0.265	0.591	0.846	0.701	0.887	1.08	0.998
F fixed	0.365	0.976	0.438	0.837	1.1	1.29	0.928	1.08	1.01
G fixed	0.923	0.664	0.497	1.13	1.39	0.891	1.6	1.03	0.824
H fixed	0.367	1.28	0.871	1.04	0.879	1.21	1.3	1.21	1.17
I fixed	0.409	0.781	0.325	0.92	0.428	0.804	0.877	0.911	0.684
K fixed	0.439	1.91	8.59	1.62	1.01	0.798	0.839	1.02	1.17
L fixed	0.384	0.947	0.358	1.12	1.02	1.27	0.88	0.911	0.787
M fixed	0.407	1.09	0.405	1.3	1.02	1.27	0.895	0.814	0.8
N fixed	0.402	1.08	0.524	1.06	1.01	0.963	0.91	0.888	0.813
P fixed	10.1	0.384	0.626	0.731	0.7	1.3	0.804	0.589	1.1
Q fixed	0.499	1.47	0.665	1.17	1.37	1.09	1.18	1.18	1.13
R fixed	0.494	1.94	1.49	0.939	1.3	0.684	0.88	0.829	1.06
V fixed	0.516	1.08	0.392	0.977	0.643	0.892	1.04	0.907	1
W fixed	0.326	0.667	0.429	1.32	1.34	1.19	1.2	1.4	1.13
Y fixed	0.33	0.82	0.393	0.935	0.92	1.01	1.03	1.1	1.19
pThr fixed	1.22	0.953	1.31	0.611	0.373	0.917	1.01	0.787	0.965
pTyr fixed	2.21	0.603	1.1	0.825	0.766	1.63	1.13	0.938	0.898

MAPK14, construct: Full length, human (from UniProt Q16539)
relative phosphorylation
Conditions	at +1	at +2	at +3	at +4	at -1	at -2	at -3	at -4	at -5
A fixed	1.53	1.11	1.23	0.76	1.11	1.26	1.35	1.05	0.942
D fixed	0.147	0.674	0.665	0.783	0.616	0.425	0.833	0.947	0.761
E fixed	0.135	0.652	0.727	0.67	0.84	0.319	1.22	0.981	0.935
F fixed	0.403	0.864	1	1.47	0.795	0.59	0.769	1.01	0.997
G fixed	1.24	1.3	1.17	1.05	1.35	0.91	1.67	1.16	1.18
H fixed	0.346	1.11	0.846	0.89	1.06	0.499	1.01	0.859	1
I fixed	0.337	1.29	1.53	0.996	0.649	0.93	0.957	1.16	1.12
K fixed	0.34	1.33	0.654	1.06	0.922	0.594	0.908	1.09	1.24
L fixed	0.412	1.12	0.877	1.07	1.39	1.43	0.87	1.21	1.16
M fixed	0.408	0.967	0.926	1.11	1.55	1.14	1.07	1.15	1.05
N fixed	0.344	0.797	0.611	0.716	0.809	0.548	0.887	0.837	0.785
P fixed	9.61	0.697	1.64	0.88	1.14	4.82	1.27	1.03	1.27
Q fixed	0.277	0.903	0.673	0.895	1.1	0.686	0.892	0.898	0.871
R fixed	0.424	1.44	0.926	1.21	1.42	0.752	1.11	0.959	1.03
V fixed	0.366	1.09	1.43	0.801	0.755	1.09	0.727	0.767	0.757
W fixed	0.37	0.751	1.1	1.42	0.637	0.507	0.64	0.945	0.746
Y fixed	0.31	0.914	0.998	1.21	0.866	0.492	0.807	0.934	1.16
pThr fixed	0.432	1.1	0.892	0.516	0.341	0.619	1.02	0.89	0.939
pTyr fixed	0.397	0.625	1.16	0.674	0.632	0.435	0.834	0.943	1.33
